Paper PMC7497641, “Neurotropic activity and safety of methylene-cycloalkylacetate (MCA) derivative 3-(3-allyl-2-methylenecyclohexyl) propanoic acid” (ACS Chemical Neuroscience, 2020)

Tests used:
[1] = molecular target: T1, Nicotinic acetylcholine Receptor alpha-4 beta-2 (nAChR(a4/b2)) (Homo sapiens, UniProt P17787+P43681); experiment: cell-based; details: Blocker; Ion channel; read-out: RC50 (the source's name)
T1 construct: host or cells: unnamed DiscoverX cell line

[2] = molecular target: Gamma-aminobutyric acid Receptor A (GABAA) (Homo sapiens, UniProt P14867+P18507+P47870); experiment: SAFETYscan Ion channel assay; format: cell-based; details: Blocker, read-out: RC50 (the source's name)
[3] = system: PGE2 production in PC12 cells; experiment: PGE2 production measured by ELISA; details: 50 ng/mL NGF; 24 h
[4] = system: adult rat spinal cord primary cultures; experiment: Spinal cord neurons neurite outgrowth assay; format: cell-based; details: NGF 50 ng/mL
Procedure: To study the effect of HU-MCA-13 on adult rat spinal cord primary cultures in vitro, we developed a purification procedure that yields enriched different types of spinal cord neuronal cultures. This neurotropic assay was performed using vehicle 1% DMSO in DMEM as control and 10 μM HU-MCA-13. The results in Figure 1 bottom row and Figure 3D clearly indicate that in control there was very poor spontaneous neurite outgrowth of a total length of about 180 μm and NGF induced neurite outgrowth to a total length of about 800 μm. Similarly, HU-MCA-13 induced a neurite outgrowth of 600 μm. Figure 2B indicates cytoskeletal-tubulin protein expression in the cultured neurons. These findings further extend the neurotropic effect of HU-MCA-13 to spinal cord neurons, in addition to DRGs and PC12 cells.
Spinal cords were isolated from adult rats (4–6 months old), and the meninges were removed from the spinal cord. The spinal cord was then cut into small pieces and collected in cold Hibernate A (Brainbits, Springfield, IL, USA), glutamine (0.5 mM), and B27 (Invitrogen, Carlsbad, CA). […] Neurite outgrowth was measured and presented as mean length of a neurite (microns). To measure neuronal survival, 450 cells were counted in 10 randomly chosen microscope fields of a known area in each of the three dishes per condition using a 20× objective and phase-contrast optics. […]

[5] = system: PC12 dopaminergic cell cultures; experiment: PC12 neurotropic (neurite outgrowth) assay; format: cell-based, rat; details: for neurite outgrowth, Df value: NGF alone 50 ng/mL
[6] = system: dorsal root ganglion (DRG) sensory neurons; experiment: DRG neurite outgrowth assay; format: cell-based, mice; details: NGF 50 ng/mL, DRG explants, 5 days
Text: In the second step, we study the effect of HU-MCA-13 on ex-vivo sensory neuronal cultures obtained from dissociated dorsal root ganglia (DRG), a model in which the neurons tend to extend neurites in culture at a high rate, and all neurite outgrowths are axons, as confirmed by immune staining for cytoskeletal-specific proteins.[27] […] By contrast, NGF induced a strong, 3.5-fold increase in neurite outgrowth to a value of 700 μm (Figure 1 and Figure 3B) and a ratio of 8.5 between the area covered by neurites and that covered by the DRG ganglia (Figure 3C). Similarly, HU-MCA-13 induced a 2.5 fold increase in neurite outgrowth to a value of about 500 μm (Figure 1 and Figure 3B) and a ratio of 5.4 between the area covered by neurites and that covered by the DRG ganglia (Figure 3C). […] These experiments extend the neurotropic effect of MCA-13 observed with PC12 dopaminergic neuronal cultures to DRG sensory neurons.
To perform these experiments, 10 DRGs were excised under sterile conditions and transferred to Dulbecco’s Modified Eagle Medium (DMEM) containing 0.25% Type IV collagenase in at 37 °C for 45 min, followed by a 20 min incubation with 0.025% trypsin in DMEM, to digest the associated connective tissue surrounding the neurons. After plating the ganglia onto collagen (50 μg/mL)/laminin mixture (5 μg/mL)-coated tissue culture wells for 24 h, DRG neurons were cultured for additional 1–7 days in fresh Neurobasal A/B27 medium[27] containing either 50 ng/mL NGF (positive control), medium containing 1% DMSO (negative control) or 5 μM MCA-13. The living cultures were photographed and thereafter, the ganglia were immunostained for β tubulin III and again photographed using a fluorescent microscope. A researcher blinded to the experimental conditions performed image analysis, and the neurite outgrowth length (in micrometers) was measured.[50]

T1 sequence (P43681 29-627 limits assumed): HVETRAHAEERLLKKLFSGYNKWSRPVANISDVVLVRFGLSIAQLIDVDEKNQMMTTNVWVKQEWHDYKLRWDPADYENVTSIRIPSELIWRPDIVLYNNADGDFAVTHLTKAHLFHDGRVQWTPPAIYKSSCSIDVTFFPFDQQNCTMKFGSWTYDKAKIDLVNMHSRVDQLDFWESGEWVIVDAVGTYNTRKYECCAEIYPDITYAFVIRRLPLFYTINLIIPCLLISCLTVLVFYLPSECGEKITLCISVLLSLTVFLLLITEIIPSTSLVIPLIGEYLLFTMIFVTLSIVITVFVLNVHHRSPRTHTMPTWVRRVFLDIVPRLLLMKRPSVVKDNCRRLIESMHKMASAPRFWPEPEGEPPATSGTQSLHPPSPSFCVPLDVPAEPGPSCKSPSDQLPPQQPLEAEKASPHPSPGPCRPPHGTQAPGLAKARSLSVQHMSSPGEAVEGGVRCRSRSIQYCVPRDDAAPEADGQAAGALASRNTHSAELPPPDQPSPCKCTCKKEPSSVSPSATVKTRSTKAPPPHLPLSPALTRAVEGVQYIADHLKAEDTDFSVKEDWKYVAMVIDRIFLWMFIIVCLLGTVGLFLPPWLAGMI
T1 sequence (P17787 26-502): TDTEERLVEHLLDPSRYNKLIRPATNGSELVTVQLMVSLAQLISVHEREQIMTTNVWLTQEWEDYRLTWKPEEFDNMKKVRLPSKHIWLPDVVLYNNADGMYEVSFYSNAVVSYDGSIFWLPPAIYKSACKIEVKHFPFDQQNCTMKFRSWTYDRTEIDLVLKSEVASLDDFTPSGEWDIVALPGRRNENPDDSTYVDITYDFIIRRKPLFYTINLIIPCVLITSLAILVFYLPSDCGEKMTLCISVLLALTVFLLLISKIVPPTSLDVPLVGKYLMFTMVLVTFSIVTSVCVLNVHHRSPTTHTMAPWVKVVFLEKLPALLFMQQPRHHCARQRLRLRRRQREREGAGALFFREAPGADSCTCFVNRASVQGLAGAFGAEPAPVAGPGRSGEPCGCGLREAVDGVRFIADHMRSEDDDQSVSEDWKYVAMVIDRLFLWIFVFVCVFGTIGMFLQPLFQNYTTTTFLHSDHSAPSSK
Sequence of Gamma-aminobutyric acid Receptor A (GABAA) (P14867 28-456): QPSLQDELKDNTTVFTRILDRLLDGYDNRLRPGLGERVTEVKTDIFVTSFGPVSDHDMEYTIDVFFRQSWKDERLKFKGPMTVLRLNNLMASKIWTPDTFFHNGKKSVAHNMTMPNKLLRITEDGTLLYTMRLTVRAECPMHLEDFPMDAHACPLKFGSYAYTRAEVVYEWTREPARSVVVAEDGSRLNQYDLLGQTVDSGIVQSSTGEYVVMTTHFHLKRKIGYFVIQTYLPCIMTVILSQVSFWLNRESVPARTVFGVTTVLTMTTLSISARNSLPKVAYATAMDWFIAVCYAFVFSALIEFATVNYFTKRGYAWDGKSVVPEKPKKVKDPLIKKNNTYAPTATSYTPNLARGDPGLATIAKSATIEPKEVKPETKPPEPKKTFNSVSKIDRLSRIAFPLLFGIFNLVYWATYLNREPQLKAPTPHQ
Sequence of Gamma-aminobutyric acid Receptor A (GABAA) (P47870 26-512): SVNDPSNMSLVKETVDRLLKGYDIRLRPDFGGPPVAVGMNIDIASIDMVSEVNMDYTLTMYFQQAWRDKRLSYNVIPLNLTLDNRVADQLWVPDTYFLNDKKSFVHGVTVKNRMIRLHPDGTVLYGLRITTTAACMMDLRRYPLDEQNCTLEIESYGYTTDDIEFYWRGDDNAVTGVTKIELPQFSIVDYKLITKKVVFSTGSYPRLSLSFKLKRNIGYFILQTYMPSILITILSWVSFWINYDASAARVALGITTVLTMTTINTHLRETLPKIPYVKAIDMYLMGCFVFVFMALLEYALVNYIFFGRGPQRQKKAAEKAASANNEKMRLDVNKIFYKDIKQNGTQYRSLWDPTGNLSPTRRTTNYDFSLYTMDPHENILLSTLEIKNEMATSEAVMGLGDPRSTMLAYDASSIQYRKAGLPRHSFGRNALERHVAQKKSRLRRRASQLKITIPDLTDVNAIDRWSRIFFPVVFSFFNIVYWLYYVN
Sequence of Gamma-aminobutyric acid Receptor A (GABAA) (P18507 40-475): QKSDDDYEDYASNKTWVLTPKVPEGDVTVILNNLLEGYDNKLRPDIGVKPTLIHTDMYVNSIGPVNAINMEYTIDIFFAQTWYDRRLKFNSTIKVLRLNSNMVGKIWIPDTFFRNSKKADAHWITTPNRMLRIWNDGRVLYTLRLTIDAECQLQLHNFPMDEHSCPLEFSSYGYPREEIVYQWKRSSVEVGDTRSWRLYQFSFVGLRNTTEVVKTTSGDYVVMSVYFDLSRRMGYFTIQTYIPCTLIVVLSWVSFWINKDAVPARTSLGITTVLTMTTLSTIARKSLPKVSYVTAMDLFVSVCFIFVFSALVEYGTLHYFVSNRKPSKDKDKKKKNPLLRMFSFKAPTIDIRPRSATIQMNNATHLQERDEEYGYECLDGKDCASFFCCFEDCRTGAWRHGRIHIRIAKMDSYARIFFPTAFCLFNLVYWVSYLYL

Dihydro-AY-erythroidine [reference compound]
IC50 [1]: 0.707 µM

Picrotoxin
IC50 [2]: 5.92 µM

B1: NGF: Tissue culture grade mouse β-nerve growth factor, neurotrophin used as positive control (protein, UniProt P01139 122-241, looked up)
Beta-nerve growth factor: SSTHPVFHMGEFSVCDSVSVWVGDKTTATDIKGKEVTVLAEVNINNSVFRQYFFETKCRASNPVESGCRGIDSKHWNSYCTTTHTFVKALTTDEKQAAWRFIRIDTACVCVLSRKATRRG
modifications: Beta-nerve growth factor
notes: Tissue culture grade mouse β-nerve growth factor, neurotrophin used as positive control
production of PGE2 [3]: significantly increased | neurite outgrowth total length [4]: about 800 μm | neurotropic effect in the presence of Trk A inhibitor K252a ([5]; 250 nM K252a, 10 μM HU-MCA-13): abolished | neurite outgrowth, Df value ([5]; 2 days): 0.54 | neurite outgrowth, Df value ([5]; 7 days): 0.4 | neurite outgrowth ([5]; low dose of NGF 1 ng/mL): 10% | neurite outgrowth, Df ([5]; low dose of NGF 1 ng/mL): 0.05 | neurite outgrowth length [6]: 700 μm | ratio between the area covered by neurites and that covered by the DRG ganglia [6]: 8.5 | fold increase in neurite outgrowth ([6]; versus control medium): 3.5 fold
